Data on 27 molecules can be found in patent publication US20230203146A1.

Like-named read-outs stand apart in the source and are kept apart here. Where only a bound is given, the exact number is not on record here.

In assay [1] the target is FLAG tagged human Ang2 (Alexis Biochemicals) (human) (UniProt O15123). The experiment in a line: competition ELISA, FLAG-hAng2 (0.02 nM) on coated hTie2/Fc. (An ELISA detects its analyte on a solid surface through an enzyme-linked reagent.)
Assay [2] shares this target. The experiment in a line: competition ELISA, periplasmic extract, FLAG-hAng2 on hTie2/Fc.
Assay [3] shares this target. The experiment in a line: AlphaScreen competition, periplasmic extract, FLAG-hAng2 / biotin-hTie2/Fc. Background: Alpha assays give light when donor and acceptor beads are brought close together.
Assay [4] deals with FLAG-tagged human Ang2 (human) (UniProt O15123). The experiment in a line: competition ELISA: FLAG-hAng2 binding to coated hTie2-Fc.
Assay [5] deals with FLAG-tagged recombinant human Ang1 (human) (UniProt Q15389). The experiment in a line: ratio of IC50s in hAng1/hTie2 and hAng2/hTie2 competition ELISA.
Assay [6] addresses FLAG-tagged human Ang2 (human) (UniProt O15123). The experiment in a line: competition ELISA: FLAG-hAng2 binding to coated hTie2-Fc. The source holds these as a separate data set.

The IC50 is the concentration at which inhibition is half-maximal. The low end stands for greater potency, the high end for weaker potency.

Chain of FLAG tagged human Ang2 (Alexis Biochemicals) (human) (O15123 19-496): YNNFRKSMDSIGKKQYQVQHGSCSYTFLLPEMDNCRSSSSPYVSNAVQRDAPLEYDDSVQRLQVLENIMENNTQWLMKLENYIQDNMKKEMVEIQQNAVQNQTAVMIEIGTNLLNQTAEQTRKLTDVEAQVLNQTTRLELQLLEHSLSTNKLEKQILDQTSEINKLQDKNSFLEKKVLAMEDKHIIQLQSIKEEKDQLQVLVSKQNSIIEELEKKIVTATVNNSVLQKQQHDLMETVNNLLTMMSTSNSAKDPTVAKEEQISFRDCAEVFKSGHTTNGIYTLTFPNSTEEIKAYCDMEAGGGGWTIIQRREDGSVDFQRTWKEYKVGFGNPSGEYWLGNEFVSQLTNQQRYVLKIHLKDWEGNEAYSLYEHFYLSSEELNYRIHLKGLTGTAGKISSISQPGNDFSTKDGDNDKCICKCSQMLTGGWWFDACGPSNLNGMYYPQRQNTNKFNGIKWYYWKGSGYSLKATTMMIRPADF
Chain of FLAG-tagged human Ang2 (human) (O15123 19-496): as above
Chain of FLAG-tagged recombinant human Ang1 (human) (Q15389 20-498 limits assumed): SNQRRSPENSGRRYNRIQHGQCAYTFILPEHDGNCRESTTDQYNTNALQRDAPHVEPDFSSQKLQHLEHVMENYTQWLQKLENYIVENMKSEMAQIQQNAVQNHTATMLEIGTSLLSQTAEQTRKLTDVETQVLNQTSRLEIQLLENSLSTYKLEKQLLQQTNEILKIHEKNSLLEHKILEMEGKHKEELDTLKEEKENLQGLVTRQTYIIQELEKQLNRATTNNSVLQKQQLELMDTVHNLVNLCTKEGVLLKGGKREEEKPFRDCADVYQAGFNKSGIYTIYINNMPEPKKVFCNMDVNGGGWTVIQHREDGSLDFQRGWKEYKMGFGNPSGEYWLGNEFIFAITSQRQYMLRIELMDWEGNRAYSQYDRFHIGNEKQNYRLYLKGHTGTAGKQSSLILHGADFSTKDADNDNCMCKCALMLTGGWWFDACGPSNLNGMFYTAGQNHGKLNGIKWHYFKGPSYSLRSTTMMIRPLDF

B1: VHH 22C07 (VHH, not shown: small tags and cut ends)
VHH: EVQLVESGGGLVQAGGSLRLSCAASGFTFDDYAIGWFRQAPGKEREGVSCISSSDGSTYYADSVKGRFTISSDNAKNTVYLQMNSLKPEDTAVYYCAADFIISSKRLCLDLFGSRGQGTQVTVSS
With B1, in assay [1], the IC50 turned out to be 11 nM. Also, the % inh in assay [2] turned out to be 78%; in assay [3] it was 73%.

B2: VHH 6H05 (VHH, not shown: small tags and cut ends)
VHH: EVQLVESGGGLVQAGGSLRLSCAASGFTFDDYAIGWFRQAPGKEREGVSCISSSDGSTAYADSVKGRFTISSDNAKNTVYLQMNSLKPEDTAVYYCTAVPATRRTPQMVAANVCWLAEYEYDYWGQGTQVTVSS
Molecule B2 returned an IC50 in assay [1] of 5.3 nM.

B3: VHH 10C06 (VHH, not shown: small tags and cut ends)
VHH: EVQLVESGGGLVQAGGSLRLSCVASGFTFDDYAIGWFRQAPGKEREGVSCISSSDGSTYYADSVKGRFTISGDNAKNTVYLQMNSLKPEDTAVYYCAAGITPCSDYTQTYEYDVWGQGTQVTVSS
Molecule B3 showed an IC50 in assay [1] of 7.7 nM.

B4: VHH 21G10 (VHH, not shown: small tags and cut ends)
VHH: EVQLVESGGGLVQAGGSLRLSCAASGFTLDDYAIGWFRQAPGKEREGVSCISSSDGSTTYADSVKGRFTVSSDNAKNTVYLQMNSLKPEDTAVYYCAAGLRGRYYRGTYSLVCAPYEYDFWGQGTQVTVSS
B4: the IC50 in assay [1] came to 6.2 nM.

B5: VHH 00908 (VHH, not shown: small tags and cut ends)
VHH: EVQLVESGGGLVQPGGSLRLSCAASGITLDDYAIGWFRQAPGKEREGVSSIRDNGGSTYYADSVKGRFTISSDNSKNTVYLQMNSLRPEDTAVYYCAAVPAGRLRYGEQWYPIYEYDAWGQGTLVTVSS
Take B5: the IC50 in assay [4] was 0.045 nM. In addition, the hAng1/hAng2 IC50 ratio in assay [5] was over 192000.

B6: VHH 00956 (VHH, not shown: small tags and cut ends)
VHH: EVQLVESGGGLVQPGGSLRLSCAASGFTLDDYAIGWFRQAPGKEREGVSAIRSSGGSTYYADSVKGRFTISSDNSKNTVYLQMNSLRPEDTAVYYCAAVPAGRLRFGEQWYPLYEYDAWGQGTLVTVSS
B6 came in with an IC50 in assay [4] of 1.3 nM. Further, in assay [5], the hAng1/hAng2 IC50 ratio is over 7730.

B7: VHH 00937 (VHH, not shown: small tags and cut ends)
VHH: EVQLVESGGGLVQPGGSLRLSCAVSGITLDDYAIGWFRQAPGKEREGVSAIRESGGSTYYADSVKGRFTISSDNSKNTVYLQMNSLRPEDTAVYYCAAVPAGRLRYGEQWYPIYEYDAWGQGTLVTVSS
For B7, the IC50 in assay [4] stood at 0.054 nM. For the same molecule, in assay [5], the hAng1/hAng2 IC50 ratio was over 186000.

B8: VHH 00938 (VHH, not shown: small tags and cut ends)
VHH: EVQLVESGGGLVQPGGSLRLSCAVSGITLDDYAIGWFRQAPGKEREGVSAIRSSGGSTYYADSVKGRFTISSDNSKNTVYLQMNSLRPEDTAVYYCAAVPAGRLRYGEQWYPIYEYDAWGQGTLVTVSS
Take B8: the IC50 in assay [4] stood at 0.05 nM. The hAng1/hAng2 IC50 ratio in assay [5] was over 201000.

B9: VHH 00919 (VHH, not shown: small tags and cut ends)
VHH: EVQLVESGGGLVQPGGSLRLSCAASGFTLDDYAIGWFRQAPGKEREGVSAIRDNGGSTYYADSVKGRFTISSDNSKNTVYLQMNSLRPEDTAVYYCAAVPAGRLRFGEQWYPLYEYDAWGQGTLVTVSS
Turning to B9, in assay [4], the IC50 worked out at 0.9 nM. In addition, the hAng1/hAng2 ratio in assay [5] is over 11200.

B10: VHH 00935 (VHH, not shown: small tags and cut ends)
VHH: EVQLVESGGGLVQPGGSLRLSCAASGITLDDYAIGWFRQAPGKEREGVSAIRSSGGSTYYADSVKGRFTISSDNSKNTVYLQMNSLRPEDTAVYYCAAVPAGRLRYGEQWYPIYEYDAWGQGTLVTVSS
The molecule B10 displayed an IC50 in assay [4] of 0.068 nM. In addition, the hAng1/hAng2 IC50 ratio in assay [5] was over 146000.

B11: VHH 00052 (VHH, not shown: small tags and cut ends)
VHH: EVQLVESGGGLVQPGGSLRLSCAASGFTLDDYAIGWFRQAPGKEREGVSSIRDNDGSTYYADSVKGRFTISSDNDKNTVYLQMNSLRPEDTAVYYCAAVPAGRLRFGEQWYPLYEYDAWGQGTLVTVSS
Take B11: in assay [6], the IC50 was 1 nM.

B12: VHH 00041 (VHH, not shown: small tags and cut ends)
VHH: EVQLVESGGGLVQPGGSLRLSCAASGFTLDDYAIGWFRQAPGKEREGVSSIRDNDGSTYYADSVKGRFTISSDNAKNTVYLQMNSLRPEDTAVYYCAAVPAGRLRFGEQWYPLYEYDAWGQGTLVTVSS
In assay [6], B12 registered an IC50 of 0.6 nM.

B13: VHH 00054 (VHH, not shown: small tags and cut ends)
VHH: EVQLVESGGGLVQPGGSLRLSCAASGFTLDDYAIGWFRQAPGKEREGVSSIRDNDGSTYYADSVKGRFTISRDNSKNTVYLQMNSLRPEDTAVYYCAAVPAGRLRFGEQWYPLYEYDAWGQGTLVTVSS
Consider B13, for which, in assay [6], the concentration for half-maximal inhibition (IC50) came out at 9.5 nM.

B14: VHH 00933 (VHH, not shown: small tags and cut ends)
VHH: EVQLVESGGGLVQPGGSLRLSCAASGITLDDYAIGWFRQAPGKEREGVSAIRDNGGSTYYADSVKGRFTISSDNSKNTVYLQMNSLRPEDTAVYYCAAVPAGRLRYGEQWYPIYEYDAWGQGTLVTVSS
In assay [4], B14 showed an IC50 of 0.056 nM. The hAng1/hAng2 IC50 ratio in assay [5] is over 180000.

B15: VHH 00053 (VHH, not shown: small tags and cut ends)
VHH: EVQLVESGGGLVQPGGSLRLSCAASGFTLDDYAIGWFRQAPGKEREGVSSIRDNDGSTYYADSVKGRFTISRDNDKNTVYLQMNSLRPEDTAVYYCAAVPAGRLRFGEQWYPLYEYDAWGQGTLVTVSS
B15 registered an IC50 in assay [6] of 10.7 nM.

B16: VHH 00934 (VHH, not shown: small tags and cut ends)
VHH: EVQLVESGGGLVQPGGSLRLSCAASGITLDDYAIGWFRQAPGKEREGVSAIRESGGSTYYADSVKGRFTISSDNSKNTVYLQMNSLRPEDTAVYYCAAVPAGRLRYGEQWYPIYEYDAWGQGTLVTVSS
In assay [4], B16 had an IC50 of 0.064 nM. In addition, the hAng1/hAng2 IC50 ratio in assay [5] is over 157000.

B17: VHH 00043 (VHH, not shown: small tags and cut ends)
VHH: EVQLVESGGGLVQPGGSLRLSCAASGFTLDDYAIGWFRQAPGKEREGVSSIRDNDGSTYYADSVKGRFTISRDNAKNTVYLQMNSLRPEDTAVYYCAAVPAGRLRFGEQWYPLYEYDAWGQGTLVTVSS
Regarding B17, in assay [6], the IC50 worked out at 9.5 nM.

B18: VHH 00025 (VHH, not shown: small tags and cut ends)
VHH: EVQLVESGGGLVQAGGSLRLSCAASGFTLDDYAIGWFRQAPGKEREGVSTIRDSDGSTYYADSVKGRFTISSDNDKNTVYLQMNSLKPEDTAVYYCAAVPAGRLRFGEQWYPLYEYDAWGQGTLVTVSS
Regarding B18, in assay [6], the IC50 is 2.1 nM.

B19: VHH 00936 (VHH, not shown: small tags and cut ends)
VHH: EVQLVESGGGLVQPGGSLRLSCAVSGITLDDYAIGWFRQAPGKEREGVSAIRDNGGSTYYADSVKGRFTISSDNSKNTVYLQMNSLRPEDTAVYYCAAVPAGRLRYGEQWYPIYEYDAWGQGTLVTVSS
The molecule B19 came in with an IC50 in assay [4] of 0.045 nM. The hAng1/hAng2 IC50 ratio in assay [5] was over 224000.

B20: VHH 00048 (VHH, not shown: small tags and cut ends)
VHH: EVQLVESGGGLVQAGGSLRLSCAASGFTLDDYAIGWFRQAPGKEREGVSSIRDSDGSTYYADSVKGRFTISSDNDKNTVYLQMNSLKPEDTAVYYCAAVPAGRLRFGEQWYPLYEYDAWGQGTLVTVSS
B20 showed an IC50 in assay [6] of 0.6 nM.

B21: VHH 00932 (VHH, not shown: small tags and cut ends)
VHH: EVQLVESGGGLVQPGGSLRLSCAVSGITLDDYAIGWFRQAPGKEREGVSSIRDNGGSTYYADSVKGRFTISSDNSKNTVYLQMNSLRPEDTAVYYCAAVPAGRLRYGEQWYPIYEYDAWGQGTLVTVSS
B21 gave an IC50 in assay [4] of 0.049 nM. In assay [5], the hAng1/hAng2 IC50 ratio was over 206000.

B22: VHH 3F02 (VHH, not shown: small tags and cut ends)
VHH: EVQLVESGGGLVQVGDSLRLACAASGRTFSTYLMVGWFRQAPGKEREFAAGIWSSGDTAYADSVKGRFTISRDNAKNTVYLQMNSLKTEDTAVYYCAGSYDGNYYIPGFYKDWGQGTQVTVSS
Regarding B22, the IC50 in assay [1] was determined as 9.1 nM.

B23: VHH 14H02 (VHH, not shown: small tags and cut ends)
VHH: EVQLVESGGGLVQAGGSLRLSCAASGFTFDEYAIGWFRQAPGKEREGVSYISSSDGSTYYADSVKGRVTSSSDNAKNTVYLQMNSLKPEDTAVYYCAARPTLRVRLDNDRHHLLYEYEYDYWGQGTQVTVSS
Consider B23, for which, in assay [1], the IC50 amounted to 64.4 nM.

B24: VHH 15H04 (VHH, not shown: small tags and cut ends)
VHH: EVQLVESGGGLVQAGGSLGLSCAASERTLPSYVMGWFRQAPGKELEFVAGISWSSGRTYYTDSVKGRFTISRDAAENTWYLQMNSLKPEDTAVYYCASNSVSEPTLHTWQYEASYDYWGQGTQVTVSS
B24 came in with an IC50 in assay [1] of 18.6 nM. For the same molecule, the % inh was 82% in assay [2] and 57% in assay [3].

B25: VHH 8A11 (VHH, not shown: small tags and cut ends)
VHH: EVQLVESGGGLVQAGGSLRLSCAASGRTFSSYAMGWFRQAPGKELEFVTAVSWSGGSTYYADSVKGRFTISRDSAKNTVYLQMNSLKPEDTAVYYCAAQSTIVEVTTLEAYDYWGQGTQVTVSS
For the molecule B25, the IC50 in assay [1] was determined as 30.2 nM. Besides, the % inh in assay [2] stood at 67%; in assay [3] it was 57%.

B26: VHH 16G09 (VHH, not shown: small tags and cut ends)
VHH: EVQLVESGGGLVQAGGSLRLVCSASGIDFSINAMAWYRQAPGKQREWVAFMINDSSTDYTDSVKGRFTISRDSTKNILYLQMNNLNVEDTAVYYCNTAYEQHTYWGQGTQVTVSS
For B26, in assay [1], the IC50 was determined as 11.3 nM.

B27: VHH 12B03 (VHH, not shown: small tags and cut ends)
VHH: EVQLVESGGGLVQSGGSLRLSCAASGFALDYYTIGWFRQAPGKEREGVSCISGGDTSTYYADSVKGRFTISRDNAKNTVYLQMNSLKPEDTAVYYCATDSAGVPAGPAAVYGSTCSRLEYDYWGQGAQVTVSS
In turn, B27 gave an IC50 in assay [1] of 4.6 nM.
